In patent publication US20160304628A1:
Primed or numbered codes have the meaning given here. Where no end group is shown, it is not given here. [ ]: non-standard residue; d: D form. The star is where a group is joined. Hpra′ = its azide, alkyne or alkene has reacted where a group follows in round brackets; Man9 = Man9 glycan, attached by click reaction of Man9-azide with homopropargylglycine; maleimide‑biotin = maleimide-biotin reagent joined to deprotected Cys; For = O=C*

Columns and labels:
[1] = target: HIV broadly neutralizing monoclonal antibody 2G12; assay: radiolabeled glycopeptide, 2G12 titration, protein G bead capture, scintillation counting
[2] = target: HIV broadly neutralizing monoclonal antibody 2G12; assay: BLI (BLItz), biotin-10F2 on streptavidin sensor, 2G12 in solution at 1 nM
[3] = target: HIV broadly neutralizing monoclonal antibody 2G12; assay: BLI (BLItz), biotin-10F2 on streptavidin sensor, 2G12 in solution at 2 nM
[4] = target: HIV broadly neutralizing monoclonal antibody 2G12; assay: BLI (BLItz), biotin-10F2 on streptavidin sensor, 2G12 in solution at 4 nM
[5] = target: HIV broadly neutralizing monoclonal antibody 2G12; assay: BLI (BLItz), biotin-10F2 on streptavidin sensor, 2G12 in solution at 8 nM
[6] = target: HIV broadly neutralizing monoclonal antibody 2G12; assay: BLI (BLItz), biotin-10F2 on streptavidin sensor, 2G12 in solution at 16 nM
[7] = target: HIV broadly neutralizing monoclonal antibody 2G12; assay: BLI (BLItz), biotin-10F2 on streptavidin sensor, 2G12 in solution at 32 nM
[8] = target: HIV broadly neutralizing monoclonal antibody 2G12; assay: BLI (BLItz), biotin-10F2 on streptavidin sensor, 2G12 in solution at 0.5 nM
[9] = target: HIV broadly neutralizing monoclonal antibody 2G12; assay: BLI (BLItz), biotin-10F2 on streptavidin sensor, 2G12 in solution at 1 nM; global 1:1 fit
[10] = target: HIV broadly neutralizing monoclonal antibody 2G12; assay: BLI (BLItz), biotin-10F2 on streptavidin sensor, 2G12 in solution at 2 nM; global 1:1 fit
[11] = target: HIV broadly neutralizing monoclonal antibody 2G12; assay: BLI (BLItz), biotin-10F2 on streptavidin sensor, 2G12 in solution at 4 nM; global 1:1 fit
[12] = target: HIV broadly neutralizing monoclonal antibody 2G12; assay: BLI (BLItz), biotin-10F2 on streptavidin sensor, 2G12 in solution at 8 nM; global 1:1 fit
[13] = target: HIV broadly neutralizing monoclonal antibody 2G12; assay: BLI (BLItz), biotin-10F2 on streptavidin sensor, 2G12 in solution at 16 nM; global 1:1 fit
[14] = target: HIV broadly neutralizing monoclonal antibody 2G12; assay: BLI (BLItz), biotin-10F2 on streptavidin sensor, 2G12 in solution at 32 nM; global 1:1 fit
[15] = target: HIV broadly neutralizing monoclonal antibody 2G12; assay: BLI (BLItz), biotin-10F2 on streptavidin sensor, 2G12 in solution at 0.5 nM; global 1:1 fit

B1: glycopeptide 10F5 (Fixed library, round 10) (peptide)
peptide: For-[Hpra′](Man9)SPHLPVLLCK[Hpra′](Man9)VLNDGRRIVQ[Hpra′](Man9)SCELP[Hpra′](Man9)VRRSGSGSLGHHHHHHRDYKDDDDK
modifications: not fully specified; cysteine pairing not given here
- Fmax [1]: 93%
- Kd [1]: 0.97 nM

B2: glycopeptide 10F12 (Fixed library, round 10) (peptide)
peptide: For-[Hpra′](Man9)CYVTVIPA[Hpra′](Man9)N[Hpra′](Man9)PEARLGIVCH[Hpra′](Man9)PGIRRGKALYGSGSLGHHHHHHRDYKDDDDK
modifications: not fully specified; cysteine pairing not given here
- Fmax [1]: 90%
- Kd [1]: 0.77 nM

Binder: For-[Hpra′](Man9)HPYNTSRTSA[Hpra′](Man9)[Hpra′](Man9)AALK[Hpra′](Man9)QVTD[Hpra′](Man9)YALALFHRILGSGSGC(maleimide‑biotin)A [biotinylated synthetic 10F2 glycopeptide 3]
- Req [2]: 0.682
- Req [3]: 0.987
- Req [4]: 1.26
- Req [5]: 1.37
- Req [6]: 1.41
- Req [7]: 1.39
- Req [8]: 0.481
- Kd [9]: 1.37 nM
- koff [9]: 0.000151 s⁻¹
- kon [9]: 111000 M⁻¹ s⁻¹
- Kd [10]: 1.37 nM
- koff [10]: 0.000151 s⁻¹
- kon [10]: 111000 M⁻¹ s⁻¹
- Kd [11]: 1.37 nM
- koff [11]: 0.000151 s⁻¹
- kon [11]: 111000 M⁻¹ s⁻¹
- Kd [12]: 1.37 nM
- koff [12]: 0.000151 s⁻¹
- kon [12]: 111000 M⁻¹ s⁻¹
- Kd [13]: 1.37 nM
- koff [13]: 0.000151 s⁻¹
- kon [13]: 111000 M⁻¹ s⁻¹
- Kd [14]: 1.37 nM
- koff [14]: 0.000151 s⁻¹
- kon [14]: 111000 M⁻¹ s⁻¹
- Kd [15]: 1.37 nM
- koff [15]: 0.000151 s⁻¹
- kon [15]: 111000 M⁻¹ s⁻¹
